Laboratory results reported in patent US20240084003A1 (SIMCERE ZAIMING PHARMACEUTICAL, published 2024).

T1: human CD22-ECD-His protein (human, UniProt P20273 20-687)
T1 construct: Made in house in HEK293E; also called hCD22-ECD-His; recombinant human CD22-ECD His protein; not shown: His tag
T1 sequence: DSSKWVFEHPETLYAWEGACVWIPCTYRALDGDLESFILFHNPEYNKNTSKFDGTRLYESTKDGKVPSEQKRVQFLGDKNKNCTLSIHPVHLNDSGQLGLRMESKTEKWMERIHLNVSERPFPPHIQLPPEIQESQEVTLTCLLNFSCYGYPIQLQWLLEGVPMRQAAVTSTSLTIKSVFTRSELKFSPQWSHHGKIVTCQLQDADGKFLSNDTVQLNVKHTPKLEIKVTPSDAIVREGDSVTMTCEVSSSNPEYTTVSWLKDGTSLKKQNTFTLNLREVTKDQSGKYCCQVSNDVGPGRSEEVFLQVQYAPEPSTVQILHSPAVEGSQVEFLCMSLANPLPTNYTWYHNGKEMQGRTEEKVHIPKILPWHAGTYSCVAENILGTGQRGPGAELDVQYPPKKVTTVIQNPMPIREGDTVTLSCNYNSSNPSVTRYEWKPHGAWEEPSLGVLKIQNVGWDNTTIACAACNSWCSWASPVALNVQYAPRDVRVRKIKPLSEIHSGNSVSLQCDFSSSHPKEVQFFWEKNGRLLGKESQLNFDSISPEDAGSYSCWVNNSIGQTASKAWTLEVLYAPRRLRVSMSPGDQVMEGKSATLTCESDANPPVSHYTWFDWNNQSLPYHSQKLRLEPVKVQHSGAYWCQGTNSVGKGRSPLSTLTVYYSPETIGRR

T2: murine CD22 protein (ACROBiosystems, SI2-M52Ha) (murine, UniProt P35329 22-708)
T2 construct: extracellular domain; also called murine CD22-ECD; murine CD22-ECD-His
T2 sequence (looked up): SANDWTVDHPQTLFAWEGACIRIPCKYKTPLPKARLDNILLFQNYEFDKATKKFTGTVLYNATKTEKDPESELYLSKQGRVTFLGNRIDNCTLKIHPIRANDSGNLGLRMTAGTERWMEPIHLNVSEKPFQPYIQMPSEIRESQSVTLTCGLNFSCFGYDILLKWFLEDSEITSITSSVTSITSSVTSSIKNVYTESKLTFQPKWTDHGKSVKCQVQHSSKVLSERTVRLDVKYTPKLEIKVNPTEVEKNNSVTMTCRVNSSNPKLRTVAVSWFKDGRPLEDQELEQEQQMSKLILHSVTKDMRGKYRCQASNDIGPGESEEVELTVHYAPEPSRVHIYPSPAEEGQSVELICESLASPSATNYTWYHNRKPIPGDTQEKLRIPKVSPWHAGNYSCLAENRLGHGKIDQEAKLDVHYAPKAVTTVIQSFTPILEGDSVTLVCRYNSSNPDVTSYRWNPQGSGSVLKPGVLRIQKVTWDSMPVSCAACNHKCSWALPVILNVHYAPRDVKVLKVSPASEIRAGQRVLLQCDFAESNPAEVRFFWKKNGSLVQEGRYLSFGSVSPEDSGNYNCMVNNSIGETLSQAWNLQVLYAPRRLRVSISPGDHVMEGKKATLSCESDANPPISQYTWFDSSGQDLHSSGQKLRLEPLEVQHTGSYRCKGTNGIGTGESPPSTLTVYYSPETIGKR

T3: human CD22 domain5-7-His (human, UniProt P20273 414-687)
T3 construct: also called hCD22 domain5-7-His; not shown: His tag
T3 sequence: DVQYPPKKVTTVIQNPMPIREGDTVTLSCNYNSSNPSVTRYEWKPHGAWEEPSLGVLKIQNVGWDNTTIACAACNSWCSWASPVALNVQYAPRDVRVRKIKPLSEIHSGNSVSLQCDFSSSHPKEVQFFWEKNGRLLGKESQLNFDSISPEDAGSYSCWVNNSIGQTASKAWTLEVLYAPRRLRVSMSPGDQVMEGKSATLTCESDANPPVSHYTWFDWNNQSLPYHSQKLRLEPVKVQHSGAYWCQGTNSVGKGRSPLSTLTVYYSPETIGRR


How the values were obtained:
[1] = target: T1, human CD22-ECD-His protein; assay: ELISA, Ab 0.01 nM
Protocol: (§1) In order to detect the binding activity of CD22 human-murine chimeric antibodies to CD22 protein, the purified human CD22-ECD-His protein obtained in Example 2 was diluted with PBS to a final concentration of 2 μg/mL, and then added to 96-well ELISA plate at 100 μl/well. The plate was sealed with plastic film and incubated overnight at 4° C., the plate was washed 2 times with PBS the next day, and then a blocking solution [PBS+2% (w/w) BSA] was added for blocking at room temperature for 2 hours. […] After incubation at 37° C. for 2 hours, the plate was washed 3 times with PBS. HRP (horseradish peroxidase)-labeled secondary antibody (purchased from Sigma, catalog number: A0170) was added, and incubated at 37° C. for 2 hours, and the plate was washed 5 times with PBS. TMB substrate was added at 50 μl/well, and incubated at room temperature for 30 minutes, then a stop solution (1.0 N HCl) was added at 50 μl/well.

[2] = target: T1, human CD22-ECD-His protein; assay: ELISA, Ab 0.0001 nM
Protocol: as §1

[3] = target: T1, human CD22-ECD-His protein; assay: ELISA, human CD22-ECD-His coated
Protocol: as §1

[4] = target: T1, human CD22-ECD-His protein; assay: ELISA, Ab 100.00 nM
Protocol: as §1

[5] = target: T1, human CD22-ECD-His protein; assay: ELISA, Ab 10.00 nM
Protocol: as §1

[6] = target: T1, human CD22-ECD-His protein; assay: ELISA, Ab 0.001 nM
Protocol: as §1

[7] = target: T2, murine CD22 protein (ACROBiosystems, …); assay: ELISA, murine CD22-ECD-His coated
Protocol: as §1
In order to detect the species cross-binding activity of the chimeric antibodies, an ELISA plate was coated with commercial murine CD22 protein (ACROBiosystems, catalog number: SI2-M52Ha) and monkey CD22 protein (ACROBiosystems, catalog number: SI2-R52Ha), respectively, and the ELISA detection was performed according to the method in Example 5.1.

[8] = target: T1, human CD22-ECD-His protein; assay: ELISA, Ab 0.10 nM
Protocol: as §1

[9] = target: T1, human CD22-ECD-His protein; assay: ELISA, Ab 0.00001 nM
Protocol: as §1

human CD22 domain5-7-His = target: T3, human CD22 domain5-7-His; assay: ELISA, human CD22 domain5-7-His coated

| Binder | OD450 [1] [OD450] | OD450 [2] [OD450] | EC50 (read off the curve) [3] [nM] | OD450 [4] [OD450] | OD450 [5] [OD450] | OD450 [6] [OD450] | binding result [7] | OD450 [8] [OD450] | OD450 [9] [OD450] | binding result (human CD22 domain5-7-His) |
| --- | --- | --- | --- | --- | --- | --- | --- | --- | --- | --- |
| F2.121.9 (antibody, human IgG1, lambda, V domains shown, Human-murine chimeric IgG1, lambda) VH: EVQLVESGGGLVKPGGSLKLSCAASGFTFSDYVMSWIRQTPEKRLEWVATISDAGSYTFYPDNLKGRFTISRDNAKNNLYLQMNHLTSEDTAFYYCAIIYFGNYGGYWGQGTLVTVSV VL: QAVVTQESALTTSPGGTVVLTCRSNTGAVTTSNYANWVQEKPDHLFTGLIGGTSNRAPGVPVRFSGSLIGDKAALTITGAQTEDDAMYFCALWYSTHWVFGGGTKLTVLG | 1.6 | 0.33 | ~0.03 | 2.11 | 1.92 | 0.69 | no binding (tested: 100 nM) | 1.84 | 0.23 | no binding (tested: 100 nM) |
| F1.161.7 (antibody, human IgG1, kappa, V domains shown, Human-murine chimeric IgG1, kappa) VH: QVQLQQPGAELVKPGASVKMSCKASGYTFTSYWISWVKQRPGQGLEWIGDIYPGTGSSNYNEKFKSKATLTVDTSSSTAYMQLSSLTSEDSAVYYCARLKFEGIGYWGQGTTLTVSS VL: QIVLTQSPAIMSASLGEEITLTCSASSSVSYMHWFQQKSGTSPKLLIYSISNLASGVPSRFSGSGSGTFYSLTISSVEAEDAADYYCHQWSSYPWTFGGGTKLEIKR | 2.34 | 0.43 | ~0.02 | 2.97 | 2.63 | 1.22 | no binding (tested: 100 nM) | 2.61 | 0.25 | no binding (tested: 100 nM) |
| F1.62.10 (antibody, human IgG1, kappa, V domains shown, Human-murine chimeric IgG1, kappa) VH: QVQLQQSGPELVKPGASVKISCKASGYEFSSIWMNWVKQRPGEGLEWIGRIFPGDGEINYNEKFKGKATLTADRSSTTAYMQLSSLTSEDSAVYFCAGWRIYYGTYGAMDYWGQGTSVTVSS VL: DIQMTQITSSLSASLGDRVTISCRASQDIGNYLNWYQQKPDGTVKLLIYYTSRLHSGVPSRFSGSGSRTDYSLTISNLQQEDIATYFCQQGNTLPWTFGGGTKLEIKR | 2.16 | 0.37 | ~0.02 | 2.93 | 2.67 | 1.07 | no binding (tested: 100 nM) | 2.79 | 0.24 | no binding (tested: 100 nM) |
